B1: STIM1 CC1_([TM-distal])-CC2 A380R (domain or fragment, human, UniProt Q13586 312-387, looked up)
chain: SRQKYAEEELEQVREALRKAEKELESHSSWYAPEALQKWLQLTHEVEVQYYNIKKQNAEKQLLVAKEGREKIKKKR
B2: STIM1 CC1_([TM-distal])-CC2 E318Q/E319Q/E320Q/E322Q (domain or fragment, human, UniProt Q13586 312-387, looked up)
chain: SRQKYAQQQLQQVREALRKAEKELESHSSWYAPEALQKWLQLTHEVEVQYYNIKKQNAEKQLLVAKEGAEKIKKKR
B3: STIM1 CC1_([TM-distal])-CC2 I383R (domain or fragment, human, UniProt Q13586 312-387, looked up)
chain: SRQKYAEEELEQVREALRKAEKELESHSSWYAPEALQKWLQLTHEVEVQYYNIKKQNAEKQLLVAKEGAEKRKKKR

Tests used:
[1] = biological target: B3; experiment: pull-down
[2] = biological target: STIM1 CC1_([TM-distal])-CC2 V324P (human, UniProt Q13586 312-387, V324P); experiment: pull-down
Sequence of STIM1 CC1_([TM-distal])-CC2 V324P (Q13586 312-387 V324P): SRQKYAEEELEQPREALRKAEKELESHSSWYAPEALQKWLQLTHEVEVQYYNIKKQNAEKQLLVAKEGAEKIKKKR

[3] = biological target: B2; experiment: pull-down
[4] = biological target: B1; experiment: pull-down
[5] = biological target: STIM1 CC1_([TM-distal])-CC2 (residues 312-387) (human, UniProt Q13586 312-387); experiment: NMR titration
SEC-MALS = biological target: the molecule itself; experiment: SEC-MALS

ELNELAEFARLQDQLDHRGDH (domain or fragment, human, UniProt Q96D31 272-292, looked up) [MBP-Orai1 C_(272–292)]
binding result [1]: binds | binding result [2]: binds | binding result [3]: binds | binding result [4]: binds

ELNELAEFARLQDQLDHRGDH (peptide, UniProt Q96D31 272-292, looked up) [Orai1 C_(272–292)]
Kd [5]: 100 to 600 µM

B1
binding result (SEC-MALS): binds

B2
binding result (SEC-MALS): binds

B3
binding result (SEC-MALS): binds

B4: STIM1 CC1_([TM-distal])-CC2 K382E/K384E/K385E/K386E (domain or fragment, human, UniProt Q13586 312-387, looked up)
chain: SRQKYAEEELEQVREALRKAEKELESHSSWYAPEALQKWLQLTHEVEVQYYNIKKQNAEKQLLVAKEGAEEIEEER
binding result (SEC-MALS): binds

From article PMC3927877 (Nature Communications, 2013)
